Test results: patent US20250207140

Biological target: SARS-CoV-2 spike protein (original strain) (SARS-CoV-2) (UniProt P0DTC2)
Assay: flow

Control (-) Apt targeting CD8
Kd: 312 nM
